Laboratory results from publication PMC4346194.

Tests used:
[1] = target: GST-tagged FL-importin α1 (mouse) (UniProt P52293); assay: pull-down
[2] = target: GST-tagged FL-importin α7 (human) (UniProt O60684); assay: pull-down

In the case of “MBP-tagged PB2-NLD-K718A (from UniProt P31345 678-759) (domain or fragment)”, the percent of importin α bound to cargo [1] is reported as 20% and the percent of importin α bound to cargo [2] is reported as 43%.
